# Measured values published in US20250066759.
# System: Bs-CspB-100V80 fusion (ssRNA purification reagent, Isotag) (Bacillus subtilis)
# Details: percent of spiked dsRNA eluted; greater than 4-log dsRNA removal; dsRNA ELISA
substance,measurement,value
dsRNA matching the sequence and size of the eGFP ssRNA,binding,< 4%
